Measurements taken from article PMC4534855 (2015).

B1: Flag-eIF2β, wild type [S. cerevisiae] / eIF2α in yeast whole-cell extracts [yeast (endogenous in yeast whole-cell extracts)] (parent)
chain 1: MSSDLAAELGFDPALKKKKKTKKVIPDDFDAAVNGKENGSGDDLFAGLKKKKKKSKSVSADAEAEKEPTDDIAEALGELSLKKKKKKTKDSSVDAFEKELAKAGLDNVDAESKEGTPSANSSIQQEVGLPYSELLSRFFNILRTNNPELAGDRSGPKFRIPPPVCLRDGKKTIFSNIQDIAEKLHRSPEHLIQYLFAELGTSGSVDGQKRLVIKGKFQSKQMENVLRRYILEYVTCKTCKSINTELKREQSNRLFFMVCKSCGSTRSVSSIKTGFQATVGKRRRM
chain 2: MSTSHCRFYENKYPEIDDIVMVNVQQIAEMGAYVKLLEYDNIEGMILLSELSRRRIRSIQKLIRVGKNDVAVVLRVDKEKGYIDLSKRRVSSEDIIKCEEKYQKSKTVHSILRYCAEKFQIPLEELYKTIAWPLSRKFGHAYEAFKLSIIDETVWEGIEPPSKDVLDELKNYISKRLTPQAVKIRADVEVSCFSYEGIDAIKDALKSAEDMSTEQMQVKVKLVAAPLYVLTTQALDKQKGIEQLESAIEKITEVITKYGGVCNITMPPKAVTATEDAELQALLESKELDNRSDSEDDEDESDDE
B2: Flag-eIF2β, wild type [S. cerevisiae] / eIF2Bε in yeast whole-cell extracts [yeast (endogenous in yeast whole-cell extracts)] (parent)
chain 1: B1 chain 1
chain 2: MAGKKGQKKSGLGNHGKNSDMDVEDRLQAVVLTDSYETRFMPLTAVKPRCLLPLANVPLIEYTLEFLAKAGVHEVFLICSSHANQINDYIENSKWNLPWSPFKITTIMSPEARCTGDVMRDLDNRGIITGDFILVSGDVLTNIDFSKMLEFHKKMHLQDKDHISTMCLSKASTYPKTRTIEPAAFVLDKSTSRCIYYQDLPLPSSREKTSIQIDPELLDNVDEFVIRNDLIDCRIDICTSHVPLIFQENFDYQSLRTDFVKGVISSDILGKHIYAYLTDEYAVRVESWQTYDTISQDFLGRWCYPLVLDSNIQDDQTYSYESRHIYKEKDVVLAQSCKIGKCTAIGSGTKIGEGTKIENSVIGRNCQIGENIRIKNSFIWDDCIIGNNSIIDHSLIASNATLGSNVRLNDGCIIGFNVKIDDNMDLDRNTKISASPLKNAGSRMYDNESNEQFDQDLDDQTLAVSIVGDKGVGYIYESEVSDDEDSSTEACKEINTLSNQLDELYLSDDSISSATKKTKKRRTMSVNSIYTDREEIDSEFEDEDFEKEGIATVERAMENNHDLDTALLELNTLRMSMNVTYHEVRIATITALLRRVYHFIATQTLGPKDAVVKVFNQWGLLFKRQAFDEEEYIDLMNIIMEKIVEQSFDKPDLILFSALVSLYDNDIIEEDVIYKWWDNVSTDPRYDEVKKLTVKWVEWLQNADEESSSEEE

Variants of: B1
Experiment: co-immunoprecipitation with FLAG affinity resin, quantified western
Conditions: three biological replicates, read off a plot

Row | Variant | response
1 | chain 1 F217A Q221A | 0.94 eIF2α:eIF2β
2 | chain 1 S202A K214A | 0.96 eIF2α:eIF2β

Variants of: B2
Experiment: as above
Conditions: three biological replicates, read off a plot

Row | Variant | response
3 | chain 1 F217A Q221A | 0.63 eIF2Bε:eIF2β
4 | chain 1 S202A K214A | 0.84 eIF2Bε:eIF2β
